The source of these data is PMC7082573, “Aspergillus fumigatus Mitochondrial Acetyl Coenzyme A Acetyltransferase as an Antifungal Target” (Applied and Environmental Microbiology, 2020).

Series [1] concerns the target T1, AfERG10A (Aspergillus fumigatus, UniProt B0XMC1).
T1 construct: gene erg10A; pGEX-6P1 GST tag cleaved by PreScission; E. coli BL21(DE3)/pLysS; homotetramer
T1 sequence (B0XMC1 36-433): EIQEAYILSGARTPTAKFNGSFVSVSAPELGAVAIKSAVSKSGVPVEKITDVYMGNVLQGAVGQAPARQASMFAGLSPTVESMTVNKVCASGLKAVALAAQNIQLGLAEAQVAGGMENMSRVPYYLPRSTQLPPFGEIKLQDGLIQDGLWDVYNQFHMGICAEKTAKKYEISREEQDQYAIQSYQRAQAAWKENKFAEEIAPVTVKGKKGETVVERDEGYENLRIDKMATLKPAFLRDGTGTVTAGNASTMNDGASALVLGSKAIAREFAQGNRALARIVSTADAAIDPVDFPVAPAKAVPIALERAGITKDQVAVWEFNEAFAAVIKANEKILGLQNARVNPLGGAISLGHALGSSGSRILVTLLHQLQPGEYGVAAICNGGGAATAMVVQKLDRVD
Put plainly: X-ray crystal structure of the complex, […] Å. The following applies: crystals from 0.1 M HEPES pH 7.0, 2 M ammonium sulfate with CoA; CoA binding site.

Substrate in series [2]: CC(=O)CC(=O)SCCNC(=O)CCNC(=O)[C@H](O)C(C)(C)COP(=O)(O)OP(=O)(O)OC[C@H]1O[C@@H](n2cnc3c(N)ncnc32)[C@H](O)[C@@H]1OP(=O)(O)O
Put plainly: Mg2+ method, degradative (thiolysis) reaction, steady-state kinetics. It counts as biochemical, Aspergillus fumigatus. The following applies: CoA co-substrate (60 μM in the mixture as printed), 50 mM Tris-HCl pH 8.1, 20 mM MgCl2, 40 mM KCl, 30°C. The text has this: (§1) Mg2+ method, degradative (thiolysis) reaction, steady-state kinetics on AfERG10A

Substrate in series [3]: CC(C)(COP(=O)(O)OP(=O)(O)OC[C@H]1O[C@@H](n2cnc3c(N)ncnc32)[C@H](O)[C@@H]1OP(=O)(O)O)[C@@H](O)C(=O)NCCC(=O)NCCS
Described as above. It counts as biochemical, Aspergillus fumigatus. The following applies: acetoacetyl-CoA co-substrate (10 μM in the mixture as printed), 50 mM Tris-HCl pH 8.1, 20 mM MgCl2, 40 mM KCl, 30°C.
Source text: as §1

Substrate in series [4]: CC(=O)SCCNC(=O)CCNC(=O)[C@H](O)C(C)(C)COP(=O)(O)OP(=O)(O)OC[C@H]1O[C@@H](n2cnc3c(N)ncnc32)[C@H](O)[C@@H]1OP(=O)(O)O
Put plainly: purified protein. Format: biochemical, Aspergillus fumigatus. The following applies: 50 mM Tris-HCl pH 7.4, 0.2 mM NADH, 0.5 mM DTT, 30°C.

Series [5] concerns the molecule itself. Put plainly: crystal structure; apo and CoA-complexed AfERG10A; sitting drop at room temperature, 0.1 M HEPES (pH 7.0), 2 M ammonium sulfate, in the absence or presence of CoA; refined to 2.4 Å; four molecules in one asymmetric unit.

`CC(C)(COP(=O)(O)OP(=O)(O)OC[C@H]1O[C@@H](n2cnc3c(N)ncnc32)[C@H](O)[C@@H]1OP(=O)(O)O)[C@@H](O)C(=O)NCCC(=O)NCCS` [CoA]: the “X-ray crystal structure of the complex, 2.4 Å” value in series [1] is “structures of apo- and CoA-complexed AfERG10A were determined”.

B1: Aspergillus fumigatus acetyl-CoA acetyltransferase AfERG10A (residues 36 to 433) (enzyme, UniProt B0XMC1 36-433, looked up)
chain: EIQEAYILSGARTPTAKFNGSFVSVSAPELGAVAIKSAVSKSGVPVEKITDVYMGNVLQGAVGQAPARQASMFAGLSPTVESMTVNKVCASGLKAVALAAQNIQLGLAEAQVAGGMENMSRVPYYLPRSTQLPPFGEIKLQDGLIQDGLWDVYNQFHMGICAEKTAKKYEISREEQDQYAIQSYQRAQAAWKENKFAEEIAPVTVKGKKGETVVERDEGYENLRIDKMATLKPAFLRDGTGTVTAGNASTMNDGASALVLGSKAIAREFAQGNRALARIVSTADAAIDPVDFPVAPAKAVPIALERAGITKDQVAVWEFNEAFAAVIKANEKILGLQNARVNPLGGAISLGHALGSSGSRILVTLLHQLQPGEYGVAAICNGGGAATAMVVQKLDRVD
notes: AfERG10A (AFUB_000550), mitochondrial acetyl-CoA acetyltransferase of Aspergillus fumigatus, whole protein 433 amino acids; Cloned from cDNA into pGEX-6P1 with primers P13/P14; After PreScission cleavage a few vector residues probably remain at the N-terminus; Primer P13 carries a Lys codon (AAA) before GAG (Glu), so the construct may begin one residue earlier or have an added Lys; also called …
By Km is commonly meant the concentration of substrate that gives half-maximal velocity. Usually kcat stands for the maximal rate divided by the concentration of active sites. The term stoichiometry N denotes the number of molecules, sites or subunits per partner or assembly. In the case of B1, the Km in series [2] stood at 43 ± 9 µM; in series [3] it was 26 ± 5 µM; in series [4], 232 ± 49 µM. Also, the figures for the kcat in series [2], in series [3] and in series [4] were 3 ± 0.2 s⁻¹, 5 ± 0.2 s⁻¹ and 7 ± 0.4 s⁻¹, respectively. In series [5], the “stoichiometry N” value was found to be 4.
